Broadly, the koff is the rate constant with which the complex falls apart. Usually kon stands for the second-order rate constant of association. Broadly, the EC50 is the concentration giving half of the maximal effect.

Read-outs that look alike come from different tables or passages of the source.

Assay [1] addresses T1, human α-synuclein pre-formed fibrils (Human Alpha Synuclein Pre-formed Fibrils Type II, StressMarq SPR-317) (human, UniProt P37840 1-140). Briefly: SPR (Biacore), file name 'Main-ProA', α-syn PFF as analyte (sample PFF-1), single-cycle kinetics, 1:1 Binding fit, 25 °C; Run01.
For assay [2], the target named is T1, human α-synuclein pre-formed fibrils …. The assay can be described thus: SPR (Biacore), antibody captured on anti-hFab CM3 chip, α-syn PFF as analyte (sample PFF-1), single-cycle kinetics, 1:1 Binding fit, 25 °C; Run1. The method, then:
The equipment used was Biacore®. Anti-hFab (Sigma, I5260-1ML) diluted in acetate buffer (pH 5.0) was immobilized on the surface of an CM3 chip (GE Healthcare) by amine coupling. […] All procedures in association and dissociation phases were done in single-cycle kinetics. A 1:1 binding model was used for fitting, and the Biacore® T200 Evaluation software was used for the evaluation.
In general terms: In SPR one partner is held on a chip, and binding of the other changes the refractive index at the surface.

Assay [3] shares this target. Briefly: sandwich ELISA, antibody coated, α-syn PFF added, 7B7-biotin detection. The method, then:
Specifically, the antibodies were diluted with PBS by six-fold serial dilution from 400 nM to 0.009 nM. The diluted antibodies were added to a 96-well plate at 100 μL/well for coating. The plate was sealed and incubated at 4° C. for 16 hours. After washing with phosphate-buffered saline with Tween® (PBS-T; 0.05% Tween® 20) five times, the plate was blocked with 5% BSA in PBS 200 μL/well at 37° C. for 2 hours. After washing with PBS-T five times, α-syn PFF (2 μg/mL, 100 μL/well in 2% BSA in PBS) was added to the plate and incubated at 37° C. for 2 hours. After washing with PBS-T five times, 7B7-biotin antibody (anti-α-syn antibody; 1 μg/mL/100 μL/well, in 2% BSA in PBS) was added and incubated at 37° C. for 2 hours. After washing with PBS-T five times, the plate was incubated with horseradish peroxidase (HRP)-bound streptavidin in PBS with 2% BSA (1:5000, 1 mg/mL stock, 20 ng/well, 100 μL/well) at 37° C. for 1 hour. After washing with PBS-T five times, 3,3′,5,5′-tetramethylbenzidine (TMB) (100 μL/well) was added and incubated at room temperature for 5 minutes. The reaction was stopped by the addition of 0.5 N H₂SO₄ (50 μL/well). Optical absorbance at 450 nm was measured by using a plate reader, with absorbance at 650 nm subtracted from the reading.
In general terms: In an ELISA, binding on a coated surface is turned into a signal by an enzyme label.

Assay [4] concerns the target T2, human α-synuclein oligomers (Dopamine HCL Stabilized Human Recombinant Alpha Synuclein Oligomers, StressMarq … (human, UniProt P37840 1-140)). The assay can be described thus: sandwich ELISA, antibody coated, oligomeric α-syn added, 7B7-biotin detection. The method, then: (§1) In this sandwich ELISA, test antibodies were diluted with PBS by five-fold serial dilution from 80 nM to 0.005 nM. The serially diluted antibodies were added to a 96-well plate at 100 μL/well for coating. The plate was sealed and incubated at 4° C. for 16 hours. After washing with PBS-T five times, the plate was blocked with 5% BSA in PBS 200 μL/well at 37° C. for 2 hours. After washing with PBS-T five times, oligomeric α-syn (2 μg/mL, 100 μL/well in 2% BSA in PBS) was added and incubated at 37° C. for 2 hours. After washing with PBS-T five times, 7B7-biotin antibody (1 μg/mL, 100 μL/well, in 2% BSA in PBS) were added and incubated at 37° C. for 2 hours. After washing with PBS-T five times, the plate was incubated with Streptavidin-HRP in 2% BSA in PBS (1:5000, 1 mg/mL stock, 20 ng/well, 100 μL/well) at 37° C. for 1 hour. After washing with PBS-T five times, TMB (100 μL/well) was added and incubated at RT for 5 minutes. The reaction was stopped by the addition of 0.5 N H₂SO₄ (50 μL/well).

The target in assay [5] is T3, monomeric human α-synuclein (Active Human Recombinant Alpha Synuclein Protein Monomer type II, StressMarq … (human, UniProt P37840 1-140)). Briefly: SPR (Biacore T200), antibody captured on Protein A chip, α-syn monomer as analyte (Monomer-4), 25 °C; Run02; number of the software's 1:1 fit printed under a sensorgram without binding response (the filing's Table 18: No-binding). The method, then: (§2) The equipment used was Biacore® T200. The anti-α-syn monospecific antibody or the anti-α-syn/IGF1R bispecific antibody was diluted with 1×HBS-EPT. […] Each diluted monomer sample was injected at 60 μL/min onto the Protein A chip surface for 60 seconds, followed by washing with 1×HBS-EP buffer. The dissociation rate was evaluated for 180 seconds. All procedures in association/dissociation phases were done in single cycle kinetics. The chip surface was regenerated by injecting 10 mM glycine-HCl pH 1.5 (GE Healthcare) onto the chip surface for 60 seconds at 30 μL/min, removing residual α-syn monomer/antibody complex. A 1:1 binding model was used for fitting, and the Biacore® T200 Evaluation software was used for evaluation.

The target of assay [6] is T1, human α-synuclein pre-formed fibrils …. Briefly: SPR (Biacore), file name 'Main-ProA', α-syn PFF as analyte (sample PFF-4), single-cycle kinetics, 1:1 Binding fit, 25 °C; Run02.
The target of assay [7] is T2, human α-synuclein oligomers (Dopamine …). The assay can be described thus: sandwich ELISA, antibody coated, oligomeric α-syn added, 7B7-biotin detection. The method, then:
Human α-syn oligomers from StressMarq (Dopamine HCL Stabilized Human Recombinant Alpha Synuclein Oligomers, SPR-466) was used as the oligomeric α-syn in the assay.
as §1
This is another data set of the same source.

Assay [8] concerns the target T3, monomeric human α-synuclein (Active …). The assay can be described thus: SPR (Biacore T200), antibody captured on Protein A chip, α-syn monomer as analyte (Monomer-1), 25 °C; Run01; number of the software's 1:1 fit printed under a sensorgram without binding response (the filing's Table 18: No-binding). How it is done:
as §2

B1: hu1E4(V1_VL1) x Grabody B (bispecific antibody, human IgG1, kappa)
heavy 1: not shown
heavy 2: not shown
light: DIVMTQTPLSLSVTPGQPASISCRSSQSLVHSNGNTYLHWYLQKPGQSPQLLIYKVSNRFSGVPDRFSGSGSGTDFTLKISRVEAEDVGVYYCSQSTHVPRTFGQGTKLEIKRTVAAPSVFIFPPSDEQLKSGTASVVCLLNNFYPREAKVQWKVDNALQSGNSQESVTEQDSKDSTYSLSSTLTLSKADYEKHKVYACEVTHQGLSSPVTKSFNRGEC
notes: Anti-α-syn/IGF1R bispecific; hole heavy chain (M428L) carries the anti-IGF1R scFv Grabody B at its C-terminus through a (G4S)3 linker; knob heavy chain (M428L) without scFv; also called hu1E4(V1 VL1) × Grabody B; 1E4(Ver.1_VL1) × Grabody B
Regarding B1, the koff in assay [1] came out at 0.000472 s⁻¹; in assay [2], 0.00067 s⁻¹; in assay [5] it was 0.537 s⁻¹; in assay [6], 0.000219 s⁻¹; in assay [8] it was 2.23 s⁻¹. Besides, the association rate constant (kon) in assay [1] was found to be 1.35e+07 M⁻¹ s⁻¹; in assay [2], 1.91e+07 M⁻¹ s⁻¹; in assay [5], 46900 M⁻¹ s⁻¹; in assay [6], 1.44e+07 M⁻¹ s⁻¹; in assay [8], 3.57e+07 M⁻¹ s⁻¹. Also, the EC50 amounted to 0.334 nM in assay [3], 3.82 nM in assay [4] and 3.62 nM in assay [7]. Also, the Saturation point in assay [7] was 3.18.

Source of the values: patent publication US20220380446A1 (ABL BIO, published 2022).
